Consider one protein from publication PMC4358236 (The Journal of Biological Chemistry, 2015).

The series deals with the molecule itself. The experiment in a line: SEC-MALS.

B1: VACV protein N1 with C-terminal His6 tag (natural protein)
chain: MRTLLIRYILWRNDNDQTYYNDNFKKLMLLDELVDDGDVCTLIKNMRMTLSDGPLLDRLNQPVNNIEDAKRMIAISAKVARDIGERSEIRWEESFTILFRMIETYFDDLMIDLYGEK
Turning to B1, the “stoichiometry N” value came out at 2.

The term stoichiometry N denotes a count of units in the complex or per binding partner.
